The source of these data is article PMC6713926, “Structural Basis for Properdin Oligomerization and Convertase Stimulation in the Human Complement System” (Frontiers in Immunology, 2019).

This test deals with T1, FPht, monomeric FP head-tail protein from co-expression of FPh and FPt (human).
T1 construct: properdin (FP), human, TB-TSR3 head fragment (FPh), expressed with the endogenous FP signal peptide; the head fragment of FPc is residues 28-255; properdin (FP), human, TSR4-6 tail fragment (FPt); the tail fragment of FPc is residues 256-469; also called FPht WT; WT FPht
T1 chain 1: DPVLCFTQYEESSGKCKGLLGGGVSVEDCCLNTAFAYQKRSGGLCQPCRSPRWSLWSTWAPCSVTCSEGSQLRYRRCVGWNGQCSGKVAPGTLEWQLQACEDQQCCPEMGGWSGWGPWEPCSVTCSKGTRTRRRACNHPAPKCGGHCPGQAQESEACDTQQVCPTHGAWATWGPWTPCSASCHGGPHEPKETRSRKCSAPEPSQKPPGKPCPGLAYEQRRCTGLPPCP
T1 chain 2: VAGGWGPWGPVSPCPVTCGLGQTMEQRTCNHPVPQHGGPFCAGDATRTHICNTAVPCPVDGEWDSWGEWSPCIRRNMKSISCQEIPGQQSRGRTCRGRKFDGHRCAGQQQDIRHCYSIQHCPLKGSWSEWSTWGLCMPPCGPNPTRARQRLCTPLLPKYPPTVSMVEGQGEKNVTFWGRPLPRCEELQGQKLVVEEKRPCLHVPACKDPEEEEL
Briefly: BLI; hFPNb1 amine-coupled on AR2G sensors, FPht (20 μg/mL) loaded on it; C3b, FB variants or C3b + FB at 50 μg/mL each; 30°C; 20 mM MES pH 6.0, 100 mM NaCl, 0.05% Tween, 1 mg/mL BSA, 5 mM MgCl2; FB signal subtracted. Particulars: both partners purified. In general terms: In BLI a coated tip is dipped into the sample, and binding shifts an interference pattern.

B1: hFPNb1, FP specific non-inhibitory nanobody (VHH)
VHH: QVQLVESGGGLVQAGGSLRLSCAASERTFTIYAMGWFRQAPGKEREFVAAISRSGENTDYADSVKGRFTISRDNNKNTISLQMNSLKPEDTAVYYCAAGRAILVHTTKKEYDHWGQGTQVTVSS
notes: llama nanobody selected by phage display against FPc
As for B1, the binding result was “binds”.
